In patent publication US20120178701A1:
Bridge positions count the residues as written; N and C are the ends. Square brackets hold non-standard residues; d marks the D form. Primed or numbered codes have the meaning given here. * marks the point of attachment. Dap(betaPro) = diaminopropionic acid with a beta-prolyl group on the side-chain amine; Cyclopentylacetyl′ = not defined here; Cyclohexylacetyl = O=C(CC1CCCCC1)*; Orn = NCCC[C@H](N)C(=O)O; Dab = NCC[C@H](N)C(=O)O; Sar = CNCC(=O)O

What was measured:
[1] = target: T1, human recombinant melanocortin-4 receptor (human), P32245; assay: competitive inhibition of [I125]-NDP-α-MSH, hMC4-R HEK-293 membranes; settings: remark: other sources report otherwise
T1 sequence (P32245 whole entry): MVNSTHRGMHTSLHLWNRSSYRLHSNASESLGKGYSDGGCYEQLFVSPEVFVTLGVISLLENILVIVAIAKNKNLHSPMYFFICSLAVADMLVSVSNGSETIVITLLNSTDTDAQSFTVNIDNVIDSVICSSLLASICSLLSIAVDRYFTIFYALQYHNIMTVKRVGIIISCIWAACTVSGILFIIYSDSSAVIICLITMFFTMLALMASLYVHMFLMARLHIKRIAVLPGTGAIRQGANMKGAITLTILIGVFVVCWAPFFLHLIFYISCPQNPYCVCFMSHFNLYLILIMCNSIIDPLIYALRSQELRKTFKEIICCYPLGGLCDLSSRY

[2] = target: T1, human recombinant melanocortin-4 …; assay: competitive inhibition of Eu-NDP-α-MSH (TRF), hMC4-R HEK-293 membranes; settings: remark: other sources report otherwise
[3] = target: human recombinant melanocortin-4 receptor (human) (UniProt P32245); assay: cell-based or functional assay
Chain of human recombinant melanocortin-4 receptor (human) (P32245 whole entry): as above

[4] = target: human recombinant melanocortin-4 receptor (human) (UniProt P32245); assay: competitive inhibition of Eu-NDP-α-MSH (TRF), hMC4-R HEK-293 membranes
[5] = target: human recombinant melanocortin-4 receptor (human) (UniProt P32245); assay: competitive inhibition of [I125]-NDP-α-MSH, hMC4-R HEK-293 membranes

Binder	Ki [1]	Ki [2]	other results
Ac-RD[Orn](Ac)[dF]RWK-NH2 (lactam 2-7) [Ac-Arg-cyclo(Asp-Orn(Acetyl)-D-Phe-Arg-Trp-Lys)-NH2]	573 nM	–	–
Ac-RD[Dab](Gly)[dF]RWK-NH2 (lactam 2-7) [Ac-Arg-cyclo(Asp-Dab(Glycly)-D-Phe-Arg-Trp-Lys)-NH2]	–	110 nM	–
Ac-RD[Dap(betaPro)][dF]RWK-NH2 (lactam 2-7) [Ac-Arg-cyclo(Asp-Dap(betaPro)-D-Ph-Arg-Trp-Lys)-NH2]	–	145 nM	–
RXXFRWX (N-acetyl; X2 = hGlu; X3 = Dab; D-Phe 4; X7 = Dab; side-chain lactam hGlu2-Dab7; C-terminal amide) [Ac-Arg-cyclo(hGlu-Dab-D-Phe-Arg-Trp-Dab)-NH2]	–	–	EC50 (cAMP) [3]: 0.06 nM; intrinsic activity (cAMP; NDP-α-MSH = 100%) [3]: 98%; Ki [4]: 2 nM
RDXFRWK (HELM PEPTIDE1{[ac].R.D.[Dab].[dF].R.W.K.[C1CC1N[*:1]]}$PEPTIDE1,PEPTIDE1,3:R3-8:R3$$$V2.0; SMILES CC(=O)N[C@@H](CCCNC(=N)N)C(=O)N[C@H]1CC(=O)NCCCC[C@@H](C(=O)NC2CC2)NC(=O)[C@H](Cc2c[nH]c3ccccc23)NC(=O)[C@H](CCCNC(=N)N)NC(=O)[C@@H](Cc2ccccc2)NC(=O)[C@H](CCN)NC1=O) [Ac-Arg-cyclo(Asp-Dab-D-Phe-Arg-Trp-Lys)-NH-cyclopropyl]	3 nM	–	–
RXXFRWX (N-acetyl; X2 = hGlu; X3 = Dab; D-Phe 4; X7 = Dab; side-chain lactam hGlu2-Dab7; C-terminal free acid (-OH)) [Ac-Arg-cyclo(hGlu-Dab-D-Phe-Arg-Trp-Dab)-OH]	–	–	Ki [5]: 45 nM
RXXFRWX (N-acetyl; X2 = Dab; X3 = Dab; D-Phe 4; X7 = hGlu; side-chain lactam Dab2-hGlu7; C-terminal amide) [Ac-Arg-cyclo(Dab-Dab-D-Phe-Arg-Trp-hGlu)-NH2]	–	–	EC50 (cAMP) [3]: 0.065 nM; intrinsic activity (cAMP; NDP-α-MSH = 100%) [3]: 96%; Ki [4]: 4 nM
Ac-RD[Sar][dF]RWK-NH2 (lactam 2-7) [Ac-Arg-cyclo(Asp-Sar-D-Phe-Arg-Trp-Lys)-NH2]	15 nM	–	–
RDXFRWK (HELM PEPTIDE1{[ac].R.D.[Dab].[dF].R.W.K.[am]}|PEPTIDE2{[ac]}$PEPTIDE1,PEPTIDE2,4:R3-1:R2|PEPTIDE1,PEPTIDE1,3:R3-8:R3$$$V2.0; SMILES CC(=O)NCC[C@@H]1NC(=O)[C@@H](NC(=O)[C@H](CCCNC(=N)N)NC(C)=O)CC(=O)NCCCC[C@@H](C(N)=O)NC(=O)[C@H](Cc2c[nH]c3ccccc23)NC(=O)[C@H](CCCNC(=N)N)NC(=O)[C@@H](Cc2ccccc2)NC1=O) [Ac-Arg-cyclo(Asp-Dab(Acetyl)-D-Phe-Arg-Trp-Lys)-NH2]	33 nM	88 nM	–
RXXFRWX (N-acetyl; X2 = Dab; X3 = Dab; D-Phe 4; X7 = hGlu; side-chain lactam Dab2-hGlu7; C-terminal free acid (-OH)) [Ac-Arg-cyclo(Dab-Dab-D-Phe-Arg-Trp-hGlu)-OH]	–	–	Ki [5]: 35 nM
RDXFRWK (HELM PEPTIDE1{[ac].R.D.[NC[C@H](N[*:1])C(=O)[*:2]].[dF].R.W.K.[am]}$PEPTIDE1,PEPTIDE1,3:R3-8:R3$$$V2.0; SMILES CC(=O)N[C@@H](CCCNC(=N)N)C(=O)N[C@H]1CC(=O)NCCCC[C@@H](C(N)=O)NC(=O)[C@H](Cc2c[nH]c3ccccc23)NC(=O)[C@H](CCCNC(=N)N)NC(=O)[C@@H](Cc2ccccc2)NC(=O)[C@H](CN)NC1=O) [Ac-Arg-cyclo(Asp-Dap-D-Phe-Arg-Trp-Lys)-NH2]	–	80 nM	–
Ac-RD[Orn][dF]RWK-NH2 (lactam 2-7) [Ac-Arg-cyclo(Asp-Orn-D-Phe-Arg-Trp-Lys)-NH2]	–	7 nM	–

Continued, in another order:

Ki [1]	Ki [2]	Binder	other results
2 nM	–	Phenylacetyl-RD[Dab][dF]RWK-NH2 (lactam 2-7) [Phenylacetyl-Arg-cyclo(Asp-Dab-D-Phe-Arg-Trp-Lys)-NH2]	–
1 nM	–	Cyclohexylacetyl-RD[Dab][dF]RWK-NH2 (lactam 2-7) [Cyclohexylacetyl-Arg-cyclo(Asp-Dab-D-Phe-Arg-Trp-Lys)-NH2]	–
0.8 nM	–	{Cyclopentylacetyl′}-RD[Dab][dF]RWK-NH2 (lactam 2-7) [Cyclopentylacetyl-Arg-cyclo(Asp-Dab-D-Phe-Arg-Trp-Lys)-NH2]	–
0.4 nM	–	Cyclohexanoyl-RD[Dab][dF]RWK-NH2 (lactam 2-7) [Cyclohexanoyl-Arg-cyclo(Asp-Dab-D-Phe-Arg-Trp-Lys)-NH2]	–
